Experiment in all cases: purified protein, by the assay type
Substrate in data set [1]: CC(=O)NCCCC[C@H](NC(=O)[C@H](C)NC(=O)CNC(C)=O)C(=O)N[C@@H](CC(N)=O)C(=O)N[C@@H](CC(C)C)C(=O)N[C@@H](CCC(N)=O)C(N)=O
Further details: discontinuous LC-MS deacetylation assay, dansylated product quantified, steady-state kinetics. To be noted: 50.0 °C. On the procedure:
(§1) To study steady-state kinetics with non-fluorogenic peptide substrates and acetylpolyamines, a discontinuous LC–MS was employed based on the protocol of assaying nonfluorogenic acetyllysine peptide substrates for HDAC6 (ref. [17]). Assays were performed in triplicate. Briefly, 5 μl of enzyme (0.050–20 μM) in HEPES buffer (20 mM HEPES (pH 7.5), 100 mM NaCl, 5 mM KCl, 1 mM MgCl2) was added to 35 μl of substrate solution to initiate the reaction. […] The deacetylation products were derivatized with dansyl chloride at 50 °C for 2 hrs. The deacetylation products were detected by LC–MS using a Waters SQD equipped with an Acquity UPLC (Waters, Milford, MA, USA) and quantified by using the standard curves generated from the mass signals of the corresponding deacetylated polyamines and peptides. Inhibition of HDAC10 activity was measured by using 0.49 μM zHDAC10 with 192 μM N^8-acetylspermidine. Data were analysed by logistic regression for IC50 determination and the inhibition constant Ki was calculated based on the Cheng-Prusoff equation, Ki=IC50 / (1+[S]/KM)[45]. Assays were performed in triplicate at room temperature.

Substrate in data set [2]: CC(=O)NCCCC[C@H](NC(=O)[C@H](C)NC(=O)CNC(C)=O)C(=O)Nc1ccc2c(C)cc(=O)oc2c1
Further details: fluorogenic AMC-conjugated acetyllysine peptide deacetylation, steady-state kinetics. From the text: To determine steady-state kinetic parameters for the hydrolysis of a variety of acetylpolyamine and acetyllysine substrates, we prepared full-length recombinant HDAC10 from human (H. sapiens, hHDAC10) and zebrafish (D. rerio, zHDAC10). The CDs of these orthologues are highly similar based on 63%/79% sequence identity/similarity; only full-length constructs yielded soluble proteins. We first assayed the lysine deacetylase activity of these constructs against two commercially available aminomethylcoumarin (AMC)-conjugated fluorogenic acetyllysine peptides, GAK(ac)-AMC and RGK(ac)-AMC (molecular structures of all substrates are shown in Supplementary Fig. 2). […] These measurements were consistent with earlier studies reporting that HDAC10 activity was not measurable using fluorogenic peptide substrates. We also tested activity with 11 non-fluorogenic acetyllysine substrates using a […] chromatography–mass spectrometry (LC–MS)-based discontinuous assay[17] to avoid potential steric clashes that might occur with the bulky AMC group. These substrates included K(ac)NL and GAK(ac)NLQ, which mimic the peptide segment containing K73 in the proposed HDAC10 substrate MutS homologue 2 (MSH2)[22]. Again, we observed no or very low catalytic activity (Fig. 2 and Supplementary Table 1). In comparison with its closest relative, the cytosolic isozyme HDAC6 (ref. [17]), HDAC10 was clearly not an efficient lysine deacetylase.

Substrate in data set [3]: CC(=O)NCCCC[C@H](NC(C)=O)C(N)=O
Also on record: discontinuous LC-MS deacetylation assay, dansylated product quantified, steady-state kinetics. To be noted: 50.0 °C. On the procedure:
as §1

Substrate in data set [4]: CC(=O)NCCCC[C@H](NC(=O)[C@H](C)NC(C)=O)C(=O)N[C@@H](C)C(N)=O
Further details: discontinuous LC-MS deacetylation assay, dansylated product quantified, steady-state kinetics. To be noted: 50.0 °C. On the procedure:
as §1

Substrate in data set [5]: CC(=O)NCCCCNCCCN
Further details: steady-state kinetics of acetylpolyamine deacetylation, discontinuous LC-MS after dansyl chloride derivatization. On the procedure:
(§2) To study steady-state kinetics with non-fluorogenic peptide substrates and acetylpolyamines, a discontinuous LC–MS was employed based on the protocol of assaying nonfluorogenic acetyllysine peptide substrates for HDAC6 (ref. [17]). Assays were performed in triplicate. Briefly, 5 μl of enzyme (0.050–20 μM) in HEPES buffer (20 mM HEPES (pH 7.5), 100 mM NaCl, 5 mM KCl, 1 mM MgCl2) was added to 35 μl of substrate solution to initiate the reaction. After incubation for 15–60 min at room temperature, the reaction was quenched by addition of 50 μl of 20 mM dansyl chloride dissolved in acetonitrile followed by 10 μl of NaHCO3 (1.6 M, pH 10.0). The deacetylation products were derivatized with dansyl chloride at 50 °C for 2 hrs. The deacetylation products were detected by LC–MS using a Waters SQD equipped with an Acquity UPLC (Waters, Milford, MA, USA) and quantified by using the standard curves generated from the mass signals of the corresponding deacetylated polyamines and peptides. Inhibition of HDAC10 activity was measured by using 0.49 μM zHDAC10 with 192 μM N^8-acetylspermidine. Data were analysed by logistic regression for IC50 determination and the inhibition constant Ki was calculated based on the Cheng-Prusoff equation, Ki=IC50 / (1+[S]/KM)[45]. Assays were performed in triplicate at room temperature. We next tested the PDAC activity of hHDAC10 and zHDAC10 against several polyamine substrates using the LC–MS assay (Fig. 2, Supplementary Fig. 3 and Supplementary Table 1). […] For hHDAC10 and zHDAC10, kcat/KM=2,900±200 and 4,600±300 M^−1 s^−1, respectively; in comparison, N^1-acetylspermidine was a poor substrate with kcat/KM=24±5 and 7±2 M^−1 s^−1, respectively. Substrate specificity trends observed for zHDAC10 and hHDAC10 matched those of the previously reported mammalian N^8-acetylspermidine deacetylase activity. […] As a negative control, we examined the N^8-acetylspermidine deacetylase activity of human and zebrafish HDAC6 (ref. [17]). HDAC6 preferentially catalyses the deacetylation of the peptide substrate RGK(ac)-AMC with a catalytic efficiency >100-fold greater than that for the deacetylation of N^8-acetylspermidine. Therefore, HDAC6 is clearly an acetyllysine deacetylase and HDAC10 is an N^8-acetylspermidine deacetylase. It is notable that the molecular function of HDAC10 coincides with the cellular function of the cytosolic PDAC indicated in Fig. 1a.

Substrate in data set [6]: CC(=O)NCCCCNCCCNC(C)=O
Further details: steady-state kinetics of acetylpolyamine deacetylation, discontinuous LC-MS after dansyl chloride derivatization. As to the method:
as §2

Substrate in data set [7]: CC(=O)NCCCNCCCCNCCCN
Also on record: steady-state kinetics of acetylpolyamine deacetylation, discontinuous LC-MS after dansyl chloride derivatization. On the procedure: as §2

Substrate in data set [8]: CC(=O)NCCCCCCCCN
Also on record: steady-state kinetics of acetylpolyamine deacetylation, discontinuous LC-MS after dansyl chloride derivatization. As to the method: as §2

Substrate in data set [9]: CC(=O)NCCCCCN
Also on record: steady-state kinetics of acetylpolyamine deacetylation, discontinuous LC-MS after dansyl chloride derivatization. As to the method:
as §2

Substrate in data set [10]: CC(=O)NCCCCN
Further details: steady-state kinetics of acetylpolyamine deacetylation, discontinuous LC-MS after dansyl chloride derivatization. On the procedure: as §2

As usually defined, the Km is the substrate concentration at which the rate is half of its maximum. A word on the kcat: it is the number of substrate molecules converted per active site and unit of time at saturation. Usually kcat/Km stands for the turnover number divided by the Michaelis constant.

B1: zHDAC6 CD2 (Danio rerio) (protein)
chain: MDAVPDTKGSSGPPRGTPETKNNKKNLQEARRKGRMDRSKAEEEMSNELQNLDVQGKSKATGTGLVYVDAFTRFHCLWDASHPECPARVSTVMEMLETEGLLGRCVQVEARAVTEDELLLVHTKEYVELMKSTQNMTEEELKTLAEKYDSVYLHPGFFSSACLSVGSVLQLVDKVMTSQLRNGFSINRPPGHHAQADKMNGFCMFNNLAIAARYAQKRHRVQRVLIVDWDVHHGQGIQYIFEEDPSVLYFSVHRYEDGSFWPHLKESDSSSVGSGAGQGYNINLPWNKVGMESGDYITAFQQLLLPVAYEFQPQLVLVAAGFDAVIGDPKGGMQVSPECFSILTHMLKGVAQGRLVLALEGGYNLQSTAEGVCASMRSLLGDPCPHLPSSGAPCESALKSISKTISDLYPFWKSLQTFEGGPLSEVSPLPAPVCAEVKVSSPITGLVYDQRMMLHHNMWDSHHPELPQRISRIFSRHEELRLLSRCHRIPARLATEEELALCHSSKHISIIKSSEHMKPRDLNRLGDEYNSIFISNESYTCALLAAGSCFNSAQAILTGQVRNAVAIVRPPGHHAEKDTACGFCFFNTAALTARYAQSITRESLRVLIVDWDVHHGNGTQHIFEEDDSVLYISLHRYEDGAFFPNSEDANYDKVGLGKGRGYNVNIPWNGGKMGDPEYMAAFHHLVMPIAREFAPELVLVSAGFDAARGDPLGGFQVTPEGYAHLTHQLMSLAAGRVLIILEGGYNLTSISESMSMCTSMLLGDSPPSLDHLTPLKTSATVSINNVLRAHAPFWSSLRVNIPESLRLSLPSPKPKGKCTPGGKGKKSPRQSTPSQSPGQATHRPDQSGFDELTADLLSLNLNTSTSSNTSPESVAVGGARRKVKPNTHRVSAGLESESPLKLNPEKAGAGDDTDVKAETPNRSISEPVVTCDSSAVKDQESLVLEAAGGNTVQSVLERVFGAQATDVDTMYVVDPLPWCPHLESVRPVPAGGIDVFQPCEECGGEAENWICLFCYKVLCGRYVNQHMVTHGQESGHPVVLSFADLSVWCYACESYVHNKVLHEAKNAAHLVKFGEGIHPFN
notes: catalytic domain 2
B1: in [1], the Km was determined as 150 ± 20 µM, the kcat stood at 1.26 ± 0.07 s⁻¹ and the kcat/Km amounted to 8300 M⁻¹ s⁻¹.

B2: hHDAC10 (Homo sapiens) (protein)
chain: GTALVYHEDMTATRLLWDDPECEIERPERLTAALDRLRQRGLEQRCLRLSAREASEEELGLVHSPEYVSLVRETQVLGKEELQALSGQFDAIYFHPSTFHCARLAAGAGLQLVDAVLTGAVQNGLALVRPPGHHGQRAAANGFCVFNNVAIAAAHAKQKHGLHRILVVDWDVHHGQGIQYLFEDDPSVLYFSWHRYEHGRFWPFLRESDADAVGRGQGLGFTVNLPWNQVGMGNADYVAAFLHLLLPLAFEFDPELVLVSAGFDSAIGDPEGQMQATPECFAHLTQLLQVLAGGRVCAVLEGGYHLESLAESVCMTVQTLLGDPAPPLSGPMAPCQSALESIQSARAAQAPHWKSLQQQDVTAVPMSPSSHSPEGRPPPLLPGGPVCKAAASAPSSLLDQPCLCPAPSVRTAVALTTPDITLVLPPDVIQQEASALREETEAWARPHESLAREEALTALGKLLYLLDGMLDGQVNSGIAATPASAAAATLDVAVRRGLSHGAQRLLCVALGQLDRPPDLAHDGRSLWLNIRGKEAAALSMFHVSTPLPVMTGGFLSCILGLVLPLAYGFQPDLVLVALGPGHGLQGPHAALLAAMLRGLAGGRVLALLEENSTPQLAGILARVLNGEAPPSLGPSSVASPEDVQALMYLRGQLEPQWKMLQCHPHLVA
notes: full-length, residues 2–669, MBP fusion
With B2, the Km in [2] turned out to be 10 ± 1 µM; in [3] it was 140 ± 40 µM; in [4], 60 ± 20 µM; in [5] (room temperature), 100 ± 10 µM; in [6] (room temperature) it was 150 ± 90 µM; in [7] (room temperature) it was 180 ± 20 µM. The Km in data set [8] (room temperature) came to 160 ± 40 µM; in [9] (room temperature), 110 ± 20 µM; in data set [10] (room temperature), 170 ± 50 µM. Moreover, the kcat came to 0.00038 ± 2e-05 s⁻¹ in data set [2]; 0.0092 ± 0.0008 s⁻¹ in [3]; 0.0006 ± 0.0001 s⁻¹ in [4]; 0.28 ± 0.02 s⁻¹ in data set [5] (50.0 °C); 0.14 ± 0.08 s⁻¹ in [6] (50.0 °C); 0.011 ± 0.002 s⁻¹ in [7] (50.0 °C). Further, the kcat stood at 0.1 ± 0.02 s⁻¹ in data set [8] (50.0 °C), 0.14 ± 0.02 s⁻¹ in data set [9] (50.0 °C) and 0.35 ± 0.04 s⁻¹ in [10] (50.0 °C). In addition, the kcat/Km stood at 38 ± 2 M⁻¹ s⁻¹ in data set [2]; 66 ± 5 M⁻¹ s⁻¹ in data set [3]; 11 ± 3 M⁻¹ s⁻¹ in [4]; 2900 ± 200 M⁻¹ s⁻¹ in [5] (50.0 °C); 900 ± 300 M⁻¹ s⁻¹ in data set [6] (50.0 °C); 60 ± 10 M⁻¹ s⁻¹ in [7] (50.0 °C). Also, the kcat/Km in data set [8] (50.0 °C) stood at 620 ± 50 M⁻¹ s⁻¹; in data set [9] (50.0 °C), 1300 ± 200 M⁻¹ s⁻¹; in data set [10] (50.0 °C) it was 2100 ± 300 M⁻¹ s⁻¹.

The values above are taken from publication PMC5454378, “Histone deacetylase 10 structure and molecular function as a polyamine deacetylase” (Nature Communications, 2017).
